How the values were obtained:
[1] = target: the molecule itself; assay: X-ray crystal structure of the NK1-heparin complex, crystal type A; self-association
[2] = target: the molecule itself; assay: BS3 cross-linking with western blot, and gel filtration, with equimolar 14-mer heparin; self-association
Experimental: (§1) This was carried out by gel filtration chromatography and cross-linking experiments. For gel filtration, wt- or mutant NK1 (0.5 mg/ml) were incubated for 2 hours in the presence or absence of equimolar concentration of 14-mer heparin in phosphate buffered saline (PBS) adjusted to 300 mM NaCl. Samples were then loaded onto an HR30 Superdex 200 column (Ammersham Pharmacia Biotech) and eluted at 0.5 ml/min.
(§2) For cross-linking, 10 μl of wt- or mutant-NK1 (0.1 mg/ml) were incubated in the absence or presence of an equimolar concentration of 14-mer heparin in PBS. After 2 hours incubation at room temperature, 1 μl of crosslinker (BS³, Pierce) was added at 100 fold molar excess, the reaction was continued for 30 minutes and then quenched with 1 μl of 1M Tris-Cl, pH 7.4. Reaction products were loaded onto 15% SDS-polyacrylamide gels and blotted onto a nitrocellulose membrane (Schleicher & Schuell). […] HRP activity was detected after 3 further washes in PBS+0.2% Tween 20 using a chemiluminescent substrate (Pierce).
(§3) Cross-linking (Schwall et al., 1996) and gel filtration (Chirgadze et al., 1999) experiments were employed first in order to characterize heparin-mediated oligomerization of wt NK1 in solution. […] Cross-linked proteins were analyzed by western blotting and detected with an anti-HGF/SF polyclonal antibody (1W53). […]

[3] = target: the molecule itself; assay: BS3 cross-linking with western blot, and gel filtration (Superdex 200), with equimolar 14-mer heparin; self-association
Experimental: as §1, §2, §3

| Protein | binding result [2] | other results |
| --- | --- | --- |
| wild-type NK1 fragment of HGF/SF (amino acids 28-210) (ligand, Expressed in P. pastoris; Forms a head-to-tail dimer in the crystals and a heparin-dependent dimer in solution; also called wt-NK1; wt NK1) YAEGQRKRRNTIHEFKKSAKTTLIKIDPALKIKTKKVNTADQCANRCTRNKGLPFTCKAFVFDKARKQCLWFPFNSMSSGVKKEFGHEFDLYENKDYIRNCIIGKGRSYKGTVSITKSGIKCQPWSSMIPHEHSFLPSSYRGKDLQENYCRNPRGEEGGPWCFTSNPEVRYEVCDIPQCSEVE |  | binding result [1]: binds |
| NK1 mutant 1K1 (K132E:R134E) (ligand, K domain reverse-charge mutant of NK1) YAEGQRKRRNTIHEFKKSAKTTLIKIDPALKIKTKKVNTADQCANRCTRNKGLPFTCKAFVFDKARKQCLWFPFNSMSSGVKKEFGHEFDLYENKDYIRNCIIGEGESYKGTVSITKSGIKCQPWSSMIPHEHSFLPSSYRGKDLQENYCRNPRGEEGGPWCFTSNPEVRYEVCDIPQCSEVE | binds |  |
| NK1 mutant 1K2 (K170E:R181E) (ligand, K domain reverse-charge mutant of NK1) YAEGQRKRRNTIHEFKKSAKTTLIKIDPALKIKTKKVNTADQCANRCTRNKGLPFTCKAFVFDKARKQCLWFPFNSMSSGVKKEFGHEFDLYENKDYIRNCIIGKGRSYKGTVSITKSGIKCQPWSSMIPHEHSFLPSSYRGEDLQENYCRNPEGEEGGPWCFTSNPEVRYEVCDIPQCSEVE | binds |  |
| NK1 mutant HP11 (R73E:R76E) (ligand, N domain reverse-charge mutant of NK1; Expressed in P. pastoris) YAEGQRKRRNTIHEFKKSAKTTLIKIDPALKIKTKKVNTADQCANECTENKGLPFTCKAFVFDKARKQCLWFPFNSMSSGVKKEFGHEFDLYENKDYIRNCIIGKGRSYKGTVSITKSGIKCQPWSSMIPHEHSFLPSSYRGKDLQENYCRNPRGEEGGPWCFTSNPEVRYEVCDIPQCSEVE |  | binding result [3]: no binding |

From patent US20040236073A1 (MEDICAL RESEARCH COUNCIL, published 2004)
